Laboratory results as given in paper PMC12305717.

Target: MlucV reporter (mTFP1 - mutated firefly luciferase - Venus), urea-pre-unfolded / misfolding (firefly)

Ssa1 (yeast cytosolic Hsp70), sequence (P10591 whole entry): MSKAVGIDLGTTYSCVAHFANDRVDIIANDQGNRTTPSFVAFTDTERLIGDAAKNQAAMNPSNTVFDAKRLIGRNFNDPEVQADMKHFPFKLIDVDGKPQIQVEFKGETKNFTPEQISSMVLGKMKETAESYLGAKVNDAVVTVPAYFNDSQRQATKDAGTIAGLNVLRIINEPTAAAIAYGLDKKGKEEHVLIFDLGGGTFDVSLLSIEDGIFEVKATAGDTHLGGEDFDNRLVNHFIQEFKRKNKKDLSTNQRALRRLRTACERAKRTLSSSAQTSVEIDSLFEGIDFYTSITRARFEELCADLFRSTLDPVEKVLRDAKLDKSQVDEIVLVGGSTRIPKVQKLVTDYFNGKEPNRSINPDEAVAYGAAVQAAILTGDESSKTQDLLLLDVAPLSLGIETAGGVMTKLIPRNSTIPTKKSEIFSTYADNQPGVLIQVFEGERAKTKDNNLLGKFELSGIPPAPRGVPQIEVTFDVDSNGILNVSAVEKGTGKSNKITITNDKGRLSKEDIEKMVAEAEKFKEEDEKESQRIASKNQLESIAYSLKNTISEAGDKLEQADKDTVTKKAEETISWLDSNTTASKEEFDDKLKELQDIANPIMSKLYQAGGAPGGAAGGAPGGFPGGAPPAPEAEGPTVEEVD
Ydj1 (yeast class A J-domain protein), sequence (P25491 whole entry): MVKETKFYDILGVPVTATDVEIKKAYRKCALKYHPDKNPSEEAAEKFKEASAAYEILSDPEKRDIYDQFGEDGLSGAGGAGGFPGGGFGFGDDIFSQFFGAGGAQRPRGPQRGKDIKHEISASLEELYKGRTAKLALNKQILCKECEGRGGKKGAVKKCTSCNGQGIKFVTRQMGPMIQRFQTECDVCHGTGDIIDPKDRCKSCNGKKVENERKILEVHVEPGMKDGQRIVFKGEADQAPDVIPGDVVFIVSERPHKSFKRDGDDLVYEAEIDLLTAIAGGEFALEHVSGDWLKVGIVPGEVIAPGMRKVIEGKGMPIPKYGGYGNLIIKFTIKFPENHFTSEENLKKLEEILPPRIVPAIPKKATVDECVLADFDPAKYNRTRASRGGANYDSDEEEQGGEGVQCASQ

| prevention of aggregation: normalised FRET of urea-pre-unfolded MlucV diluted into increasing Ydj1 (150% without Ydj1; native MlucV = 100%) (% of the FRET of native MlucV) | prevention of aggregation: normalised FRET of urea-pre-unfolded MlucV diluted into increasing Ssa1 (150% without chaperone) (% of the FRET of native MlucV) | Substance |
| --- | --- | --- |
| 105 | – | Ydj1 (yeast class A J-domain protein) (from UniProt P25491 1-409) (natural protein) |
| – | 145 | Ssa1 (yeast cytosolic Hsp70) (from UniProt P10591 1-642) (natural protein) |
